Tests used:
Details in all cases: both partners purified
[1] = target: T1, apo-LgnB-A1-T0 didomain (NRPS subunit LgnB) (RED-tris-NTA label (in the MST experiment only)); experiment: MST; LgnB labelled with RED-tris-NTA, 25 nM, as target; LgnA as ligand, 10 to 0.000305 µM; HBS-ET (10 mM HEPES, 150 mM NaCl, 3 mM EDTA, 0.005% Tween-20, pH 8.0); 25 °C; Monolith NT.115
T1 construct: LgnB, NRPS subunit with domains A1-T0, encoded by lgnB of the legonmycin (lgn) biosynthetic gene cluster, amplified from cosmid 7G1; about 65 kDa; apo form (no phosphopantetheine); Cloned into EcoRI/HindIII of pET-28a(+); MA37; source: E. coli BL21-CodonPlus (DE3)-RP, purified (Ni-NTA; gel filtration on Superdex 75 for ITC); not shown: His6, N-terminal, kept

[2] = target: T2, apo-LgnD (NRPS subunit, C1-T1-C2-A2-T2-TE); experiment: ITC; LgnA (125 µM) titrated into LgnD or truncated LgnD (25 µM), also into LgnB (concentrations for LgnB not told); thirteen 3 µL injections, 25 °C; one set binding model; MicroCal PEAQ-ITC
T2 construct: LgnD, NRPS subunit with domains C1-T1-C2-A2-T2-TE, encoded by lgnD of the legonmycin (lgn) biosynthetic gene cluster, amplified from cosmid 7G1; about 207 kDa; apo form (no phosphopantetheine); Cloned into NdeI/XhoI of pEHISTEVa; MA37; also called full-length LgnD; source: E. coli BL21-CodonPlus (DE3)-RP, purified (Ni-NTA; gel filtration on Superdex 75 for ITC)

[3] = target: T3, apo-LgnD-C1-T1 didomain (truncated LgnD); experiment: as above
T3 chain: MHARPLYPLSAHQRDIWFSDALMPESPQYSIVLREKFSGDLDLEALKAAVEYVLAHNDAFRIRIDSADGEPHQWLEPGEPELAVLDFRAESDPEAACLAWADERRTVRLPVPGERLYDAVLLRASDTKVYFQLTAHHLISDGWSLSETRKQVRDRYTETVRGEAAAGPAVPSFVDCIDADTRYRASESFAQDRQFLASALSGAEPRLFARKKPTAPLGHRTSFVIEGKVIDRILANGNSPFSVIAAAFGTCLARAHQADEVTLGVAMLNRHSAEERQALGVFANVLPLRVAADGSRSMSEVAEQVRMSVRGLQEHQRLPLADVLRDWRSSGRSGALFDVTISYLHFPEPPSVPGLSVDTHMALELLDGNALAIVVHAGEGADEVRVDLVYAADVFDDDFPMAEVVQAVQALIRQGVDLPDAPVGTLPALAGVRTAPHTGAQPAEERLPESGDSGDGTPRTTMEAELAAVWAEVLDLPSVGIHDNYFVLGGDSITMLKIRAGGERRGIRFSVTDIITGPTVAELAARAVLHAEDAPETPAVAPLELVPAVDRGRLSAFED

[4] = target: T4, LgnD-T1 domain (truncated LgnD); experiment: as above
T4 chain: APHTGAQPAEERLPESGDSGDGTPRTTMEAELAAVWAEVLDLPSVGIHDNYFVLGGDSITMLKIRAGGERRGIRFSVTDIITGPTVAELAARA

T1 sequence (main, as listed by the source): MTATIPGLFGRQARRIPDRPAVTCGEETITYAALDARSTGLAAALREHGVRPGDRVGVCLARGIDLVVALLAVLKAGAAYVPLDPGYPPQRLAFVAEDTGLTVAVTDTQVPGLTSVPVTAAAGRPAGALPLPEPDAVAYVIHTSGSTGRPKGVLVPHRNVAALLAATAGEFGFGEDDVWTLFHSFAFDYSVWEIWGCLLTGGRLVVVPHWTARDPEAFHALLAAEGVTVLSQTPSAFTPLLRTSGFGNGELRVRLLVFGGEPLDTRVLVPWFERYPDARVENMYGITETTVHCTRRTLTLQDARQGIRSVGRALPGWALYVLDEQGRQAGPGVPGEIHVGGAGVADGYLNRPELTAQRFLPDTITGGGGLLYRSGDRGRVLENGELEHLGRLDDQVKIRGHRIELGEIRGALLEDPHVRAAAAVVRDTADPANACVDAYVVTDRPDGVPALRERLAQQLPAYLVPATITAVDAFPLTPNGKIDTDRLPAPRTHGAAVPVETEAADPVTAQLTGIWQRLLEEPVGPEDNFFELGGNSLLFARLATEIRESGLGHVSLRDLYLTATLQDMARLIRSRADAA

B1: LgnA, type II thioesterase (TEII) orthologue (enzyme)
chain: MPVTLLCIPYAGAGASLFRRWKRHPFQHMDVAAVQLPGREELFADGPCTSMSELVDLCAGHIRELPQDAPFALFGHSFGALVAYETAQRLAAEGLRLPERLIVSGAAAPWLPRPVTDADSLSDDQFVARVRDVVGYDHPALHDAELRGLLLPSLRADLSISDRYAPGSTDPLPVPLTVLRGSDDRLVSRQDVELWAKAASQPTELIELPGDHMYFSLDPKPLLAELDAVFARSAA
Kd [1]: 1.7 ± 0.813 µM
Kd [2]: 2.55 ± 0.096 µM

B2: LgnA, type II thioesterase (TEII) orthologue (enzyme)
chain: MPVTLLCIPYAGAGASLFRRWKRHPFQHMDVAAVQLPGREELFADGPCTSMSELVDLCAGHIRELPQDAPFALFGHSFGALVAYETAQRLAAEGLRLPERLIVSGAAAPWLPRPVTDADSLSDDQFVARVRDVVGYDHPALHDAELRGLLLPSLRADLSISDRYAPGSTDPLPVPLTVLRGSDDRLVSRQDVELWAKAASQPTELIELPGDHMYFSLDPKPLLAELDAVFARSAA
modifications: apo form (no phosphopantetheine on Ser492)
Kd [3]: 1.01 ± 0.227 µM

B3: LgnA, type II thioesterase (TEII) orthologue (enzyme)
chain: MPVTLLCIPYAGAGASLFRRWKRHPFQHMDVAAVQLPGREELFADGPCTSMSELVDLCAGHIRELPQDAPFALFGHSFGALVAYETAQRLAAEGLRLPERLIVSGAAAPWLPRPVTDADSLSDDQFVARVRDVVGYDHPALHDAELRGLLLPSLRADLSISDRYAPGSTDPLPVPLTVLRGSDDRLVSRQDVELWAKAASQPTELIELPGDHMYFSLDPKPLLAELDAVFARSAA
modifications: apo form (no phosphopantetheine on Ser492 of LgnD); limits from primers 28a-LgnD_T1-F/R
Kd [4]: 7.21 ± 1.61 µM
